Measured values reported in paper PMC6085627.
Each block holds one binder with its values, some of them ahead of it.

What was measured:
[1] = target: human TLR4 (human), O00206; assay: SPR; Biacore T200; TLR4 amine-coupled on CM5 (800 RU); GST-A-box (310-10,000 nM), GST-B-box (1 and 5 μM), A-box or GST injected at 30 μL/min for 60 s, 25 °C, dissociation 2 min; HBS-EP pH 7.4; 1:1 binding supposed; apparent KD
[2] = target: Human TLR4/MD-2 complex (human), O00206; assay: SPR; Biacore T200; TLR4/MD-2 amine-coupled on CM5 (1100 RU); GST-A-box, GST-B-box (150-5000 nM), A-box or GST injected at 30 μL/min for 60 s, 25 °C, dissociation 1 min; HBS-EP pH 7.4; GST-A-box: association and dissociation fitted separately to a 1:1 model; GST-B-box: steady-state affinity model; apparent KD
[3] = target: Human TLR4 (rhTLR4) (human), O00206; assay: SPR; TLR4/MD-2 complex or TLR4 coated on a CM5 chip; A-box protein injected as analyte (0-5 µM on TLR4/MD-2, 0-10 µM on TLR4); Biacore T200, HBS-EP buffer pH 7.4
[4] = target: Human TLR4/MD-2 complex (human), O00206; assay: as above
Target sequence in this assay (O00206 24-631, chain 1 of 2, one chain of several): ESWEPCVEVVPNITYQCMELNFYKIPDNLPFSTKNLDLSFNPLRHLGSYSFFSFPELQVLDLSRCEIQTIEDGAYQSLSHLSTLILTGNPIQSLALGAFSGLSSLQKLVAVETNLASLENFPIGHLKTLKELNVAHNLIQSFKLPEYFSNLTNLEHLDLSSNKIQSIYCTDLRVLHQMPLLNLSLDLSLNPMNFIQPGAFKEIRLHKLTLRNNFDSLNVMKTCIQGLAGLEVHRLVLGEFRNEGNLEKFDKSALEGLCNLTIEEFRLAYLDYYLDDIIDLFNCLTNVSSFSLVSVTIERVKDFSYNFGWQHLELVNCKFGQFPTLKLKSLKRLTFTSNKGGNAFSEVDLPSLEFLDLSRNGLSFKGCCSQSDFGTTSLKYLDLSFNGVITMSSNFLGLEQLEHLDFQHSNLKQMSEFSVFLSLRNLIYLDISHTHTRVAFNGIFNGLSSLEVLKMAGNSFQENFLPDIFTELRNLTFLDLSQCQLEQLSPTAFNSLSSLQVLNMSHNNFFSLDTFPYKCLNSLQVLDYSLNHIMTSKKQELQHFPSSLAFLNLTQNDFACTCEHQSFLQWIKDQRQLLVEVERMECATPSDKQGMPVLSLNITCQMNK

[5] = target: Recombinant GST-A-box; assay: SPR; Biacore T200; GST-A-box (750 RU) or GST-B-box (1000 RU) amine-coupled on CM5; MD-2 injected (17-500 nM) at 30 μL/min for 60 s, 25 °C, dissociation 1 min; HBS-EP pH 7.4; steady-state affinity model; apparent KD
[6] = target: Recombinant GST-B-box; assay: as above
[7] = target: human TLR4 (human), O00206; assay: SPR; Biacore T200; rhTLR4 amine-coupled on CM5 (~800 RU); HMGB1 isoforms injected at 30 μL/min for 60 s, 25 °C, dissociation 1-2 min; HBS-EP pH 7.4; 1:1 binding supposed; apparent KD; conditions: remark: other sources report otherwise

human TLR4 (human), O00206, sequence (O00206 24-631): as the sequence (O00206 24-631, chain 1 of 2, one chain of several) above
Human TLR4 (rhTLR4) (human), O00206, sequence (O00206 24-631): as the sequence (O00206 24-631, chain 1 of 2, one chain of several) above

B1: Recombinant GST-A-box (domain or fragment)
chain: PRGKMSSYAFFVQTCREEHKKKHPDASVNFSEFSKKCSERWKTMSAKEKGKFEDMAKADKARYEREMKTYI
modifications: not checked
Kd [1]: 590 nM | koff [1]: 0.013 s⁻¹ | kon [1]: 22000 M⁻¹ s⁻¹ | Kd [2]: 1210 nM | koff [2]: 0.037 s⁻¹ | kon [2]: 30800 M⁻¹ s⁻¹

B2: Recombinant A-box without GST tag (HMGB1 A-box domain) (domain or fragment)
chain: B1 chain
modifications: not checked
Kd [3]: 1030 nM | Kd [4]: 1550 nM

B5: disulfide HMGB1 (High Mobility Group Box 1), P63159 1-215 (natural protein)
chain: MGKGDPKKPRGKMSSYAFFVQTCREEHKKKHPDASVNFSEFSKKCSERWKTMSAKEKGKFEDMAKADKARYEREMKTYIPPKGETKKKFKDPNAPKRPPSAFFLFCSEYRPKIKGEHPGLSIGDVAKKLGEMWNNTAADDKQPYEKKAAKLKEKYEKDIAAYRAKGKPDAAKKGVVKAEKSKKKKEEEDDEEDEEDEEEEEEEEDEDEEEDDDDE
modifications: here or on the partner: disulfide bond between C23 and C45
Kd [7]: 640 nM | fold slower dissociation rate than reduced HMGB1 [7]: 2 fold | koff [7]: 0.128 s⁻¹

B6: DTT reduced HMGB1, P63159 1-215 (natural protein)
chain: B5 chain
modifications: here or on the partner: cysteines reduced with DTT (no C23-C45 disulfide)
Kd [7]: 650 nM

More lines, now with the values ahead:

Kd [5]: 3250 nM
B3: human MD-2, Q9Y6Y9 19-160 (natural protein)
chain: QKQYWVCNSSDASISYTYCDKMQYPISINVNPCIELKRSKGLLHIFYIPRRDLKQLYFNLYITVNTMNLPKRKEVICRGSDDDYSFCRALKGETVNTTISFSFKGIKFSKGKYKCVVEAISGSPEEMLFCLEFVILHQPNSN

Kd [6]: 1410 nM
B4: human MD-2 (natural protein)
chain: B3 chain
